Experimental data published in patent US20180148477A1 (published 2018).
Bridge positions count the residues as written; N and C are the ends. Square brackets hold non-standard residues; d marks the D form. Ends that are not written are not given here. Bip = N[C@@H](Cc1ccc(-c2ccccc2)cc1)C(=O)O; 1Nal = N[C@@H](Cc1cccc2ccccc12)C(=O)O; 2Nal = N[C@@H](Cc1ccc2ccccc2c1)C(=O)O; NMeR = CN[C@@H](CCCNC(=N)N)C(=O)O; β3hE = N[C@@H](CCC(=O)O)CC(=O)O; Aic = NC1(C(=O)O)Cc2ccccc2C1; NMeK = CN[C@@H](CCCCN)C(=O)O; Pen = CC(C)(S)[C@H](N)C(=O)O; dNMeK = CN[C@H](CCCCN)C(=O)O

What was measured:
[1] = target: α4β1 (R&D Systems #5668-A4) (UniProt P13612); assay: competition ELISA vs VCAM-1
[2] = target: human α4β7 integrin on cells (human) (UniProt P13612); assay: RPMI8866 adhesion to MAdCAM-1
[3] = target: rh integrin α4β7 (R&D Systems #5397-A30) (human) (UniProt P13612); assay: competition ELISA vs MAdCAM-1

IC50 [1] [nM]	IC50 [2] [nM]	IC50 [3] [nM]	Binder
> 100	< 10	< 10	Ac-[Pen][NMeR]SDTL[Pen][Bip]E[dK]-NH2 (disulfide 1-7 (inferred); also: homodimer via DIG) [SEQ ID NO: 134]
> 1000	< 10	< 10	Ac-[Pen][NMeR]SDTL[Pen][2Nal][β3hE][dK]-NH2 (disulfide 1-7 (inferred); also: homodimer via DIG) [SEQ ID NO: 137]
	> 10000	250	[Pen][NMeR]SDTL[Pen][2Nal]E (disulfide 1-7 (inferred); not fully specified (bridges); printed as Cyclo-[Pen-N-Me-R-S-D-T-L-Pen-2-Nal-E], Pen-Pen disulfide) [SEQ ID NO: 143]
	> 10	> 10	Ac-[Pen][NMeR]SDTL[Pen][2Nal]E[NMeK]-NH2 (disulfide 1-7 (inferred); also: homodimer via DIG) [SEQ ID NO: 138]

Further lines, the binder ahead of its results:

Binder	IC50 [1] [nM]	IC50 [2] [nM]	IC50 [3] [nM]
Ac-[Pen][NMeR]SDTL[Pen][2Nal][dE][dNMeK]-NH2 (disulfide 1-7 (inferred)) [SEQ ID NO: 13]		> 100	> 10
Ac-[Pen][NMeR]SDTL[Pen][2Nal][dE][dK]-NH2 (disulfide 1-7; SMILES CC(=O)N[C@@H]1C(=O)N(C)[C@@H](CCCNC(=N)N)C(=O)N[C@@H](CO)C(=O)N[C@@H](CC(=O)O)C(=O)N[C@@H]([C@@H](C)O)C(=O)N[C@@H](CC(C)C)C(=O)N[C@H](C(=O)N[C@@H](Cc2ccc3ccccc3c2)C(=O)N[C@H](CCC(=O)O)C(=O)N[C@H](CCCCN)C(N)=O)C(C)(C)SSC1(C)C) [SEQ ID NO: 9]		> 100	> 10
Ac-[Pen][NMeR]SDTL[Pen][2Nal]Y[dK]-NH2 (disulfide 1-7; also: dimer via DIG) [SEQ ID NO: 23]	> 100	< 10	
Ac-[Pen][NMeR]SDTL[Pen]W[Aic][dK]-NH2 (disulfide 1-7; SMILES CC(=O)N[C@@H]1C(=O)N(C)[C@@H](CCCNC(=N)N)C(=O)N[C@@H](CO)C(=O)N[C@@H](CC(=O)O)C(=O)N[C@@H]([C@@H](C)O)C(=O)N[C@@H](CC(C)C)C(=O)N[C@H](C(=O)N[C@@H](Cc2c[nH]c3ccccc23)C(=O)NC2(C(=O)N[C@H](CCCCN)C(N)=O)Cc3ccccc3C2)C(C)(C)SSC1(C)C) [SEQ ID NO: 51]			> 25
Ac-[Pen][NMeR]SDTL[Pen][1Nal]E[dK]-NH2 (disulfide 1-7; also: dimer via DIG) [SEQ ID NO: 24]	> 100	< 10	< 10
Ac-[Pen][NMeR]SDTL[Pen][1Nal]E[dNMeK]-NH2 (disulfide 1-7; SMILES CC(=O)N[C@@H]1C(=O)N(C)[C@@H](CCCNC(=N)N)C(=O)N[C@@H](CO)C(=O)N[C@@H](CC(=O)O)C(=O)N[C@@H]([C@@H](C)O)C(=O)N[C@@H](CC(C)C)C(=O)N[C@H](C(=O)N[C@@H](Cc2cccc3ccccc23)C(=O)N[C@@H](CCC(=O)O)C(=O)N(C)[C@H](CCCCN)C(N)=O)C(C)(C)SSC1(C)C) [SEQ ID NO: 18]	> 500		> 10
Ac-[Pen][NMeR]SDTL[Pen][2Nal][dE][dK]-NH2 (disulfide 1-7; also: dimer via DIG) [SEQ ID NO: 29]		> 10	< 10
